# Data published in article PMC5930937.
# Target: Cav3.1-GFP wild type (human) (UniProt O43497)
# UniProt O43497, sequence (O43497 whole entry): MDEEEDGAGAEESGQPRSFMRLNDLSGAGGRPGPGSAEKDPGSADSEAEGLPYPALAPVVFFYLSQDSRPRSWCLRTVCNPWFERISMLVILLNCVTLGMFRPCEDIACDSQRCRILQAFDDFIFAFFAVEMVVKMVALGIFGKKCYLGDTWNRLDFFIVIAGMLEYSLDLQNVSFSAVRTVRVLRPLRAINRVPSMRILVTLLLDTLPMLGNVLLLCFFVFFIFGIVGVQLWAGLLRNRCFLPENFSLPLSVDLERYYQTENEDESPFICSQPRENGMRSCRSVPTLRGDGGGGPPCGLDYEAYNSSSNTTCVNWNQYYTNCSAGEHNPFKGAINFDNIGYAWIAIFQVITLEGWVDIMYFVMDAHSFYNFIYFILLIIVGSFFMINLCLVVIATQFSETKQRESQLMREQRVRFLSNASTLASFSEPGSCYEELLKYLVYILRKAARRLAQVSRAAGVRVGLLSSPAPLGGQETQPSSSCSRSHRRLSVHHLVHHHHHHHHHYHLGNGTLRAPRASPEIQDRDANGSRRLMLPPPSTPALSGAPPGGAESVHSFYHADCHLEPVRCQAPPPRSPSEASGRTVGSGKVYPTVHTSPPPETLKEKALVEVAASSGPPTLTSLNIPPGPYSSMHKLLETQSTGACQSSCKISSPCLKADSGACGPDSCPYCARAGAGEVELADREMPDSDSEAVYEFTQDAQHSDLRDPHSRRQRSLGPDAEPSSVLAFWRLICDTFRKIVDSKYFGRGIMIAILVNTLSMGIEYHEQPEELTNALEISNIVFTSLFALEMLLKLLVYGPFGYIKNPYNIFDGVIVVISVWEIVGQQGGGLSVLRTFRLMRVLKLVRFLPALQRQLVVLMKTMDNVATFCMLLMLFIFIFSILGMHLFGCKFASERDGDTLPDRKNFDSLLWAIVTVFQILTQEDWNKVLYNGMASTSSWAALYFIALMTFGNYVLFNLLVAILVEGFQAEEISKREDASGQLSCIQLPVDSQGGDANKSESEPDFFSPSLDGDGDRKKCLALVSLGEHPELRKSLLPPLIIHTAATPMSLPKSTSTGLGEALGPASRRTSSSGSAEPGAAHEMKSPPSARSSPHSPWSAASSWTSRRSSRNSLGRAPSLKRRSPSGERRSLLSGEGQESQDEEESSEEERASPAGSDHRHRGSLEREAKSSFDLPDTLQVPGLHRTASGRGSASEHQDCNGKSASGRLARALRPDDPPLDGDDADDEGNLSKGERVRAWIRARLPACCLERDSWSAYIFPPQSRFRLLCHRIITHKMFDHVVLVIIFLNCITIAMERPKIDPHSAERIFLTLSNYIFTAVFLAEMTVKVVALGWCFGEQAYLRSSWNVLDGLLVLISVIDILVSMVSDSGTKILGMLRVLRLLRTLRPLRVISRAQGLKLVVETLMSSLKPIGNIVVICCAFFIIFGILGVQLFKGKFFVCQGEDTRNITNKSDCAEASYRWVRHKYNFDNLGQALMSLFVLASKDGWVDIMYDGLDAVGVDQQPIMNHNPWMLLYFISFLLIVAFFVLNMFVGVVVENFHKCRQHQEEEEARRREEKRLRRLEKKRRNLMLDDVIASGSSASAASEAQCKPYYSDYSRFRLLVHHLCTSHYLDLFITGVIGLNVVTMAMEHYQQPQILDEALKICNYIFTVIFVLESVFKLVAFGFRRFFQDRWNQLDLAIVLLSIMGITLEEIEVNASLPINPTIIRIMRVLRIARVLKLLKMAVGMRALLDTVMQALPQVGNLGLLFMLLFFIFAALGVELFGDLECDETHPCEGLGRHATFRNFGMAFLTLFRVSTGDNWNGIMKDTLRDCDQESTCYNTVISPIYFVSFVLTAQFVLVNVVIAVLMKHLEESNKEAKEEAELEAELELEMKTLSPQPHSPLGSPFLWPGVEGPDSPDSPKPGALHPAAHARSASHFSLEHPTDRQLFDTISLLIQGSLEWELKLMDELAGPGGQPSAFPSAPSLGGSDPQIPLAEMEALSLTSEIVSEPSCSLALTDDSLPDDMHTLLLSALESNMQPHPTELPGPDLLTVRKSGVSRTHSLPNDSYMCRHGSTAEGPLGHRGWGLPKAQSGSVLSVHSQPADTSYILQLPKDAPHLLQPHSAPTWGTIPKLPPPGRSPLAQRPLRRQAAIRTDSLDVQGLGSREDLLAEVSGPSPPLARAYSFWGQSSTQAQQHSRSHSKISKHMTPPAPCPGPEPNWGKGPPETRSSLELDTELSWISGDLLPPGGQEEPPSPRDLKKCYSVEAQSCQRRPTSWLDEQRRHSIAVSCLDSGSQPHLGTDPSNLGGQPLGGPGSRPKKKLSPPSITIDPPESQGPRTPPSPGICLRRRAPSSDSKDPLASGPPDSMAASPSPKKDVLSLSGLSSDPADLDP
substance,measurement,value
"spectrin αII (SPTAN1), tsA-201 cells, Q13813 1-2472","cell surface expression of Cav3.1 (surface biotinylation, tsA-201 cells) in the presence of the cell permeant Tat-Cav3.1-CT disruptor peptide against a scrambled Tat peptide",40%
